Molecular target: T1, recombinant human (rh)4-1BB Fc chimera protein (human, UniProt Q07011 24-186)
T1 construct: human 4-1BB (CD137/TNFRSF9), the part of it in the R&D Systems Fc chimera; Glycosylated; also called CD137; TNFRSF9; source: bought: R&D Systems
Test: fluorescence polarisation; fluorescence anisotropy in solution, by inhibition: fixed galectin (0.2-2.5 µM) with 0.02 µM of its fluorescent probe, in the presence of 0.07-4.75 µM (rh)4-1BB Fc or (rh)IgG1 Fc; average Kd from the points with ≥ 15% inhibition
Conditions: both partners purified

T1 sequence (Q07011 24-186, change not shown): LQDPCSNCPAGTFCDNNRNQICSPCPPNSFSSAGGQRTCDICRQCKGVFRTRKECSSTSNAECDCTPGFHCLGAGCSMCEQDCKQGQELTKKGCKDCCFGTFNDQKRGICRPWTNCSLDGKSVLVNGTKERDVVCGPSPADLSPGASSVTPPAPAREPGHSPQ

Kd: 6.12 µM
B1: recombinant human galectin-2 (natural protein, UniProt P05162 1-132, looked up)
chain: MTGELEVKNMDMKPGSTLKITGSIADGTDGFVINLGQGTDKLNLHFNPRFSESTIVCNSLDGSNWGQEQREDHLCFSPGSEVKFTVTFESDKFKVKLPDGHELTFPNRLGHSHLSYLSVRGGFNMSSFKLKE
notes: human galectin-2; also called Gal-2

— article PMC9263355, “Galectin-3 Decreases 4-1BBL Bioactivity by Crosslinking Soluble and Membrane Expressed 4-1BB” (Frontiers in Immunology, 2022)
